This passage reports Kd results from publication PMC1326249.

The target of this data set is U1A N-terminal RRM wild type (human, UniProt P09012 2-98). Description: SPR.
U1A N-terminal RRM wild type, sequence (P09012 2-98): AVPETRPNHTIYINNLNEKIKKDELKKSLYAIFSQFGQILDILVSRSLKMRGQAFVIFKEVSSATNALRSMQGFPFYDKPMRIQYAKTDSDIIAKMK

As a reminder, the Kd is the free concentration of one partner at which half of the binding sites on the other are occupied at equilibrium, for simple one-to-one binding. In turn, AGCUUAUCCAUUGCACUCCGGAUAAGCU (structured_RNA) [U1hpII] came in with a Kd of 0.07 nM.
